Results on 19 molecules are retold here after patent US20240327505A1 (published 2024).

The target in test [1] is SARS-CoV-2 Spike (S) trimer (SARS-CoV-2, UniProt P0DTC2 16-1213). In words: ELISA on coated S trimer, 1:50. On the technique in general: An ELISA detects its analyte on a solid surface through an enzyme-linked reagent.
The target of test [2] is SARS-CoV-2 spike S2 protein (SARS-CoV-2, UniProt P0DTC2 686-1213).
The next test deals with SARS-CoV-2 S2 protein (SARS-CoV-2, UniProt P0DTC2 686-1213).
Test [3] concerns the target SARS-CoV-2 spike receptor-binding domain (RBD) (SARS-CoV-2, UniProt P0DTC2 319-541).
The target in test [4] is SARS-CoV-2 spike S1 protein (SARS-CoV-2, UniProt P0DTC2 16-685).

B1: AB-009361 (antibody, V domains shown)
VH: EVQLVESGGGLAQPGGTLRLSCTGYGFIFNNYGLTWVRQAPGKGLEWLSVLSGSSYIKYEADSVRGRFTISRDNSKNTLYLEMNSLTAEDTAVYYCARKGVGSQDYGLDVWGQGTTVIVSS
VL: QSVLAQPPSASETPGQSVTISCSGSTSNIGSNFVYWYQQLPGTAPKLLIYRNTQRPSGVPDRFSGSKSATSASLAISGLRPEDEADYYCAAWDDSLSGGVFGTGTKVTVL
As for B1, the “OD 450 nm” value in test [1] was determined as 1.39 OD.

B2: AB-009343 (antibody, V domains shown)
VH: QAQLVESGGGVVQPGRSLRLSCAASGFTFNNHGMHWVRQVPGKGLEWVAVISYEGSKKDYADSVKGRFSISRDNSKQTVYLQMNSLRVEDTAVYYCAKDAAIFMIYPSRYFDLWGRGTLLTVSS
VL: SYELTQPPSMSVSPGQTASITCSGYILGDVSASWYQQKPGQSPVLIIYQDTKRPSGIPDRFSGSDSGNTATLTISGTQATDEADYYCQAWDSRTHVVFGGGTKLTVL
As for B2, the “OD 450 nm” value in test [1] came out at 0.459 OD.

B3: AB-009291 (antibody, V domains shown)
VH: EVHLLESGGGLVQPGGSLRLSCAASGFTFTTYAMFWVRQAPGKGLEWVSAINAGGAKTHYADSVRGRFTISRDNSKSTLYLHMDRLRVGDTAIYYCAKVPSYIYDSRDDYLDFWGQGTLVTVSS
VL: EIVLTQSPATLSLSPGERATLSCRASQSVSSYLAWYQQRPGQAPRLLIYDASSRATGIPVRFSGSGSGTDFTLTISSLEPEDFAVYYCQQRSDWPLLTFGGGTKVEIK
One may read the Kd as a measure of binding affinity in units of concentration. Higher therefore signals weaker binding. One may read the koff as the rate constant with which the complex falls apart. Lower therefore signals slow dissociation. For orientation: kon means the rate constant with which the complex forms. In test [2], B3 had a Kd of 0.0174 nM, a koff of 3.28e-07 s⁻¹ and a kon of 18900 M⁻¹ s⁻¹. In addition, in test [1], the “OD 450 nm” value is 2.26 OD.

B4: AB-009106 (antibody, V domains shown)
VH: QVQLAQSGAEVKRPGASVKVSCKASGFDLTTYGVGWVRQAPGQGLEWMGWISGSSGDTHYAQQFQDRVTMTTDTPTSTAYMELRSLRSDDTAVYYCVRENIAHYGSRTFLVRYYRGMDVWGQGTTVTVAS
VL: QSALTQPASVSGSPGQSITITCTGSSSDIGGFDFVSWYQQYPGKAPKLVISEVTNRPSGVSIRFSGSKSGNTASLTISGLQAEDEADYYCSSYASSYPTTNTRVFGTGTKVTVL
In test [2], B4 showed a Kd of 0.0413 nM, a koff of 2.63e-07 s⁻¹ and a kon of 6370 M⁻¹ s⁻¹. The “OD 450 nm” value in test [1] is 0.1 OD.

B5: AB-009329 (antibody, V domains shown)
VH: QLQLQESGPGLVKPSETLSLTCTVSGGSISSSSYYWGWIRQPPGKGLEWIGSIYYSGSTYYNPSLKSRVTISVDTSKNQFSLKLSSVTAADTAVYYCARHKMGWLQFAGWFDPWGQGTLVTVSS
VL: SSELTQDPAVSVALGQTVRITCQGDSLRSYYASWYQQKPGQAPVLVIYGKNNRPSGIPDRFSGSSSGNTASLTITGAQAEDEADYYCNSRDSSGNHWVFGGGTKLTVL
For the molecule B5, the “OD 450 nm” value in test [1] was 0.235 OD.

B6: AB-009273 (antibody, V domains shown)
VH: QVQLVQSGAEVKKPGSSVKVSCKASGGTFSSYAISWVRQAPGQGLEWMGGIIPIFGTANYAQKFQGRVTITTDESTSTAYMELSSLRSEDTAVYYCARVGVYDSSGYYFDYWGQGTLVTVSS
VL: EIVLTQSPATLSLSPGERATLSCRASQSVSSYLAWYQQKPGQAPRLLIYDASNRATGIPARFSGSGSGTDFTLTISSLEPEDFAVYYCQQRSNWPPRLTFGGGTKVEIK
In the test with SARS-CoV-2 S2 protein, B6 gave a Kd of 6.87 nM, a koff of 0.000148 s⁻¹ and an on-rate (kon) of 21500 M⁻¹ s⁻¹.

B7: AB-009747 (antibody, V domains shown)
VH: QVQLVESGGGVVQPGGSLRLSCAASGFTFSNYGMHWVRQAPGKGLEWVAFIRYDGSNEYYADSVKGRFTISRDNSKNTLYLHMNSLRPEDTAVYYCAKQGLLSNYYYGMDVWGQGTTVTVSS
VL: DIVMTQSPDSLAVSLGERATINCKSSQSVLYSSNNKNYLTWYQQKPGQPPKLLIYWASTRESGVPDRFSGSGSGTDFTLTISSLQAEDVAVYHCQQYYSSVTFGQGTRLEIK
B7 showed a koff in test [3] of 0.00105 s⁻¹. In test [4], this molecule yielded a Kd of 45.2 nM, a koff of 0.00379 s⁻¹ and a kon of 83700 M⁻¹ s⁻¹.

B8: AB-009214 (antibody, V domains shown)
VH: QVQLVESGGGVVQPGRSLRLSCAASGFTFSSYGMHWVRQAPGKGLEWVAVIWYDGSNKYYADSVKGRFTISRDNSKNTLYLQMNSLRAEDTAVYYCARDEPPSYYGSGSRFDYWGQGTLVTVSS
VL: SYELTQPPSVSVSPGQTARITCSGDALPKKYAYWYQQKSGQAPVLVIYEDSKRPSGIPERFSGSSSGTMATLTISGAQVEDEADYYCYSTDSSGNHWVFGGGTKLTVL
In test [2], B8 yielded a Kd of 23.2 nM. The “OD 450 nm” value in test [1] stood at 0.691 OD.

B9: AB-009080 (antibody, V domains shown)
VH: QVQLQQWGAGLLKPSETLSLTCAVYGGSFSGYYWSWIRQPPGKGLEWIGEINHSGSTNYNPSLKSRVTISVDTSKNQFSLKLSSVTAADTAVYYCARGLPVTTFYYYYYGMDVWGQGTTVTVSS
VL: not shown
For B9, in test [2], binding was put at a Kd of 0.111 nM, the koff was 2.79e-07 s⁻¹ and the kon was 2520 M⁻¹ s⁻¹. In test [1], the “OD 450 nm” value came out at 0.166 OD.

B10: AB-009226 (antibody, V domains shown)
VH: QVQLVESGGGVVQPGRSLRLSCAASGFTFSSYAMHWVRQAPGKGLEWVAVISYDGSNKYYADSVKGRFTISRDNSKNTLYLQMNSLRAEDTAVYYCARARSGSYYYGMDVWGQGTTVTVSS
VL: QSALTQPASVSGSPGQSITISCTGTSSDVGGYNYVSWYQQHPGKAPKLMIYEVSNRPSGVSNRFSGSKSGNTASLTISGLQAEDEADYYCSSYTSSSTLYVFGTGTKVTVL
Consider B10, for which, in test [2], binding was put at a Kd of 27.9 nM, the koff is 0.000783 s⁻¹ and the kon was 28100 M⁻¹ s⁻¹. Further, the “OD 450 nm” value in test [1] was found to be 2.33 OD.

B11: AB-009666 (antibody, V domains shown)
VH: EVQLVESGGGLVQPGGSLRLSCAASGFTFSSYDMHWVRQATGKGLEWVSTIGTAGDTYYPGSVKGRFTISRENAKNSLYLQMNSLRAEDTAVYYCARVNYDSSGYPTYWYFDLWGRGTLVTVSS
VL: DIQMTQSPSSLSASVGDRVTITCRASQSISRYLNWYQQKPGKAPKLLIYAASSLQSGVPSRFSGSGSGTDFTLTISSLQPEDFATYNCQQSYSSPPWTFGQGTKVEIK
In test [3], B11 returned a dissociation constant Kd of 3.04 nM, a koff of 0.00062 s⁻¹ and a kon of 204000 M⁻¹ s⁻¹. In test [4], this molecule gave a Kd of 11.9 nM, a koff of 0.000546 s⁻¹ and a kon of 45900 M⁻¹ s⁻¹.

B12: AB-009251 (antibody, V domains shown)
V domain 1: QVQLVQSGAEVKKPGASVKVSCKTSGYTFTTFYIHWVRQVPGQGLEWMGIINPDGGSTNYAQEFQARVTMTTDTSTSTAYMELSSLRFEDTAVFYCATSLGAPPGLSPRTGPQRRGPPGFDFWGQGTLITVSA
V domain 2: QSVLTQPPSVSGAPGQRVTISCTGSSSNIGAGYDVHWYQQLPGTAPKLLIFDNNNRPSGVPYRFSGSRSGTSASLAITGLQPEDEADYYCQSYDSSLSGRVFGGGTRVTVL
As for B12, in test [3], the dissociation constant Kd stood at 9.31 nM, the koff stood at 0.000469 s⁻¹ and the kon was determined as 50400 M⁻¹ s⁻¹. In test [4], this molecule returned an equilibrium dissociation constant (Kd) of 48.1 nM, a koff of 0.000544 s⁻¹ and a kon of 11300 M⁻¹ s⁻¹. The “OD 450 nm” value in test [1] is 0.886 OD.

B13: AB-009083 (antibody, V domains shown)
VH: EVHLLESGGGLVQPGGSLTLTCAASGFSFGNYVMGWVRQAPGKGLEWVSSIFGSGANPHYGGSVKGRFTISRDNSQNTLFLQMDSLTAEDTAVYYCARDGGTMVGGIITGGFNYFDSWGQGTLVTVSS
VL: EIVLTQSPASLSLSPGGWATLSCRASRSIGNSLAWYQQRPGQAPRLLIYDASNRATGIPARFSGSGSGTDFTLTISSLEPEDFAIYYCQQRNSWPPLYTFGQGTKLEIK
In test [2], B13 yielded a Kd of 0.164 nM, a koff of 4.95e-07 s⁻¹ and a kon of 3010 M⁻¹ s⁻¹. The “OD 450 nm” value in test [1] was determined as 0.249 OD.

B14: AB-009616 (antibody, V domains shown)
VH: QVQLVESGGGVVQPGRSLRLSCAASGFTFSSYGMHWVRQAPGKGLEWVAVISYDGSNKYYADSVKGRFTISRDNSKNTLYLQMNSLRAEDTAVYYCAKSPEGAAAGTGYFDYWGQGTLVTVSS
VL: SYVLTQPPSVSVAPGKTARITCGGNNIGSKSVHWYQQKPGQAPVLVVYDDSDRPSGIPERFSGSNSGNTATLTISRVEAGDEADYYCQVWDSSSDPWVFGGGTKLTVL
In test [3], B14 yielded a Kd of 3 nM, a koff of 0.000287 s⁻¹ and a kon of 95800 M⁻¹ s⁻¹. In test [4], the Kd stood at 13.3 nM, the off-rate constant (koff) worked out at 0.000755 s⁻¹ and the association rate constant (kon) amounted to 56900 M⁻¹ s⁻¹.

B15: AB-009364 (antibody, V domains shown)
VH: QVQLVESGGGVVQPGRSLRLSCAASGFTFSSYAMHWVRQAPGKGLEWVAVISYDGSNKYYADSVKGRFTISRDNSKNTLYLQMNSLRAEDTAVYYCARDPDYYDSSSDAFDIWGQGTMVTVSS
VL: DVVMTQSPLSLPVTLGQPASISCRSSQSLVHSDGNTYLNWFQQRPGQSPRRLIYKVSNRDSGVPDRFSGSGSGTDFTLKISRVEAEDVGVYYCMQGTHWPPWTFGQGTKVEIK
Turning to B15, the “OD 450 nm” value in test [1] was 1.06 OD.

B16: AB-009631 (antibody, V domains shown)
VH: EVQLVESGGGLVQPGGSLRLSCAASGFNFSFYWMSWVRQAPGKGLEWVANIKQDGSEKYYVDSVKGRFTISRDNAKNSLYLQMNSLRAEDTAVYYCARLSGGSWYFDYWGQGTLVTVSS
VL: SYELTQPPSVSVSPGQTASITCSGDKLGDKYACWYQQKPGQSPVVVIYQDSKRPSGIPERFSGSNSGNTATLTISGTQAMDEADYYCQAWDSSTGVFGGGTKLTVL
In the case of B16, in the test with SARS-CoV-2 S2 protein, the Kd came to 0.0273 nM, the koff came out at 3.31e-07 s⁻¹ and the on-rate (kon) amounted to 12100 M⁻¹ s⁻¹.

B17: AB-009676 (antibody, V domains shown)
VH: QVQLQQWGAGLLKPSETLSLTCAVYGGSFSGYYWSWIRQPPGKGLEWIGEINHSGSTNYNPSLKSRVTISVDTSKNQFSLKLSSVTAADTAVYYCARLSRQWLVRPHIYYFDYWGQGTLVTVSS
VL: DIQMTQSPSTLSASVGDRVTITCRASQSVSSYLNWYQQKPGKAPKLLIYAASSLQSGVPSRFSGSGSGTDFTLTISSLQPEDFATYFCQQSYSTPRTFGQGTKLEIK
In the test with SARS-CoV-2 S2 protein, B17 showed a Kd of 0.0456 nM, a koff of 3.12e-07 s⁻¹ and a kon of 6840 M⁻¹ s⁻¹.

B18: AB-009363 (antibody, V domains shown)
VH: EVQLLESGGGLVQPGGSLRLSCAASGFTFSSFAMTWIRQAPGKGLEWISAIGGDGGATYYVDSIKGRFTISRDNSKNTVYLHMNGLRVEDTAVYYCATPSPTRYSWGQGTLVTVSS
VL: DIVMTQSPDSLAVSLGERATLNCKSSQSVLYSSNNKNYLAWYQQKPGQPPKLLFYWASTRQSGVPDRFSGSGSGTDFTLTISSLQAEDGAVYYCQQYHKTPHTFGQGTKLEIK
In test [2], B18 gave a dissociation constant (Kd) of 192 nM, a koff of 0.0016 s⁻¹ and a kon of 8330 M⁻¹ s⁻¹. The “OD 450 nm” value in test [1] came to 2.94 OD.

B19: AB-009110 (antibody, V domains shown)
VH: QVQLVQSGAEVKEPGASVKVSCNASGYIFTSYGISWVRQAPGQGLEWVGWISGNNGNTNYAQKFQGRVTLTTDTSTSTAYLELRSLTSADTGVYFCARARLPSAYWGPGTLLTVSS
VL: EILLTQSPATLSVSPGERGSLSCRASQSVGTNLAWYQQKPGQAPRLLIYGASARATGIPARFSGSGSGTEFTLTISSLQSEDFGVYYCQQYNDWPPWTFGQGTKVEIK
Turning to B19, the “OD 450 nm” value in test [1] worked out at 0.081 OD.
